The record followed here is patent US20190300618A1 (Merck Sharp & Dohme, published 2019).

For orientation: EC50 means the concentration at which the effect is half-maximal. A higher EC50 goes with weaker potency.

Experiment [1] has as its target human CD27 (wild type), expressed on cells (human) (UniProt P26842). In words: flow cytometry on primary T cells.
The target of experiment [2] is D32A. In words: flow cytometry, CHO-K1; sub-column 2 of 2. Background: In flow cytometry, cells or beads pass a laser one at a time.
Experiment [3] has as its target D43A. As to the kind of experiment: flow cytometry, CHO-K1; sub-column 2 of 2.
Experiment [4] addresses E9A. In words: flow cytometry, CHO-K1; sub-column 2 of 2.
Experiment [5] has as its target F28A. In words: flow cytometry, CHO-K1; sub-column 2 of 2.
For experiment [6], the target named is G16A. As to the kind of experiment: flow cytometry, CHO-K1; sub-column 2 of 2.
The target of experiment [7] is H36A. In words: flow cytometry, CHO-K1; sub-column 2 of 2.
Experiment [8] addresses H60A. In words: flow cytometry, CHO-K1; sub-column 2 of 2.
Experiment [9] concerns the target I46A. As to the kind of experiment: flow cytometry, CHO-K1; sub-column 2 of 2.
Experiment [10] addresses K17A. In words: flow cytometry, CHO-K1; sub-column 2 of 2.
In experiment [11] the target is K31A. In words: flow cytometry, CHO-K1; sub-column 2 of 2.
Experiment [12] addresses K38A. In words: flow cytometry, CHO-K1; sub-column 2 of 2.
In experiment [13] the target is N88A. In words: flow cytometry, CHO-K1; sub-column 2 of 2.
Experiment [14] addresses P44A. As to the kind of experiment: flow cytometry, CHO-K1; sub-column 2 of 2.
The target in experiment [15] is P8A. In words: flow cytometry, CHO-K1; sub-column 2 of 2.
In experiment [16] the target is Q15A. As to the kind of experiment: flow cytometry, CHO-K1; sub-column 2 of 2.
The target in experiment [17] is Q41A. As to the kind of experiment: flow cytometry, CHO-K1; sub-column 2 of 2.
The target in experiment [18] is Q91A. In words: flow cytometry, CHO-K1; sub-column 2 of 2.
In experiment [19] the target is R10A. In words: flow cytometry, CHO-K1; sub-column 2 of 2.
Experiment [20] has as its target R37A. In words: flow cytometry, CHO-K1; sub-column 2 of 2.
Experiment [21] deals with R87A. As to the kind of experiment: flow cytometry, CHO-K1; sub-column 2 of 2.
Experiment [22] has as its target R93A. In words: flow cytometry, CHO-K1; sub-column 2 of 2.
Experiment [23] concerns the target S63A. As to the kind of experiment: flow cytometry, CHO-K1; sub-column 2 of 2.
Experiment [24] addresses V30A. As to the kind of experiment: flow cytometry, CHO-K1; sub-column 2 of 2.
Experiment [25] has as its target V49A. In words: flow cytometry, CHO-K1; sub-column 2 of 2.
For experiment [26], the target named is W13A. In words: flow cytometry, CHO-K1; sub-column 2 of 2.
For experiment [27], the target named is W90A. In words: flow cytometry, CHO-K1; sub-column 2 of 2.
The target in experiment [28] is human CD27 (wild type), expressed on cells (human) (UniProt P26842). As to the kind of experiment: flow cytometry MFI on CD4+ T cells from peripheral blood.
For experiment [29], the target named is T1, Q15A.
T1 construct: also called hCD27 Q15A
T1 receptor: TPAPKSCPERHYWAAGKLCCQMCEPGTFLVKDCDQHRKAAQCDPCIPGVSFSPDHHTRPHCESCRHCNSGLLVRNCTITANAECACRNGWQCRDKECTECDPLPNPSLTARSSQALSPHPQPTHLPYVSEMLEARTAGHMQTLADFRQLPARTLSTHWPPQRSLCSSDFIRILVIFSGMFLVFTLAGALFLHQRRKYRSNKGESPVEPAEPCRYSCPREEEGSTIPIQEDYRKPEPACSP
In words: flow cytometry, CHO-K1; single column.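 Also: CHO-K1 cells transiently transfected with hCD27 alanine mutant constructs, anti-hCD27 antibody binding measured by flow cytometry, 30 min at 4 °C, wild-type hCD27 binding taken as 100%.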
Experimental: (§1) The ability of several anti-hCD27 antibodies to bind to a series of hCD27 alanine mutants was determined using CHO-K1 cells, transiently transfected pCI-neo empty vector, pCI-neo.hCD27 and several pCI-neo.CD27Ala mutant constructs.
(§2) Detached cells were transferred to 96 wells round-bottomed well plates at approximately 1.2×10⁵ cells/well. After spinning down the cells, discarding the supernatants and re-suspending the cells in the residual volume, the primary antibodies were added and incubated for 30 minutes at 4° C. Cells were washed three times with DPBS/BSA 1%, followed by centrifugation, discarding of the supernatants and re-suspension in the residual volume. […] After washing once, antibody binding was detected using the HTS plate reader (FACS Canto II) and FlowJo software for data analysis. Debris, dead cells and doublets were excluded from the analysis. Binding was expressed as the geometric mean of the FITC signal, relative to antibody binding to hCD27, which was set at 100%.

In experiment [30] the target is T2, Q41A.
T2 construct: also called hCD27 Q41A
T2 receptor: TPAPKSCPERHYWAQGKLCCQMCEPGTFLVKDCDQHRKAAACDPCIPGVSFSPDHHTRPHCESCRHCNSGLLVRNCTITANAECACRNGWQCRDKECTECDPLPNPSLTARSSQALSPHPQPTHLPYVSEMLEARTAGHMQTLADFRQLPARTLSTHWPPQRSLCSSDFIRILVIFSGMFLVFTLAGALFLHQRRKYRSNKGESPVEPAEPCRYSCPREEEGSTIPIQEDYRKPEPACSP
In words: flow cytometry, CHO-K1; single column.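 Also: CHO-K1 cells transiently transfected with hCD27 alanine mutant constructs, anti-hCD27 antibody binding measured by flow cytometry, 30 min at 4 °C, wild-type hCD27 binding taken as 100%.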
Experimental: as §1, §2

In experiment [31] the target is T3, V49A.
T3 construct: also called hCD27 V49A
T3 receptor: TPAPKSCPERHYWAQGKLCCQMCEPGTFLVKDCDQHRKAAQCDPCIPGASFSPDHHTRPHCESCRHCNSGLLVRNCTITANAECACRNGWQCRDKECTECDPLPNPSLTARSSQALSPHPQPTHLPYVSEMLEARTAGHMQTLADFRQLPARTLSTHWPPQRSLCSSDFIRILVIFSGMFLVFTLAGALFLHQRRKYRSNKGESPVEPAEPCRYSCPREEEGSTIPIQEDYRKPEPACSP
As to the kind of experiment: flow cytometry, CHO-K1; single column.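 Also: CHO-K1 cells transiently transfected with hCD27 alanine mutant constructs, anti-hCD27 antibody binding measured by flow cytometry, 30 min at 4 °C, wild-type hCD27 binding taken as 100%.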
Experimental: as §1, §2

Experiment [32] addresses T4, N88A.
T4 construct: also called hCD27 N88A
T4 receptor: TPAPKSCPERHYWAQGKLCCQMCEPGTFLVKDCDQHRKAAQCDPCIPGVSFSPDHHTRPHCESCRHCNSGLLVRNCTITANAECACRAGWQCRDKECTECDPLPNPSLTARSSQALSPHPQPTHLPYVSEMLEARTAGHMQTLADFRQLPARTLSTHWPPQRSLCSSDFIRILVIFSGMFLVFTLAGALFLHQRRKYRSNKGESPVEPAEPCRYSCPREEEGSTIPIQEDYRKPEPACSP
In words: flow cytometry, CHO-K1; single column.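 Also: CHO-K1 cells transiently transfected with hCD27 alanine mutant constructs, anti-hCD27 antibody binding measured by flow cytometry, 30 min at 4 °C, wild-type hCD27 binding taken as 100%.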
Experimental: as §1, §2

Experiment [33] concerns the target T5, P8A.
T5 construct: also called hCD27 P8A
T5 receptor: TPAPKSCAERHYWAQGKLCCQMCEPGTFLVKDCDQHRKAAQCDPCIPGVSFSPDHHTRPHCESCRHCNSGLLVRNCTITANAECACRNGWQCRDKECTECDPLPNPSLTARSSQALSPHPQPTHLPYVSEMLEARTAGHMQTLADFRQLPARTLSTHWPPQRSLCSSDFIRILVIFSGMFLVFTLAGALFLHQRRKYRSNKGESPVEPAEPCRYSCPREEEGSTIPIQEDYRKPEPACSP
As to the kind of experiment: flow cytometry, CHO-K1; single column.
Experimental: as §1, §2

The molecule 1F5 hIgG1 (antibody) registered a fold higher EC50 compared to 131AVH6VL6-hIgG1 in experiment [1] of 5 fold. Further, the % of WT hCD27 binding (geo mean FITC) in experiment [2] was 59.6%; in experiment [3], 86.1%; in [4], 120%; in experiment [5] it was 46.2%; in experiment [6], 101%; in [7], 80%. Moreover, the % of WT hCD27 binding (geo mean FITC) worked out at 110% in [8]; 69.7% in experiment [9]; 112% in [10]; 120% in experiment [11]; 94.2% in experiment [12]; 119% in experiment [13]. In addition, the % of WT hCD27 binding (geo mean FITC) in experiment [14] was determined as 83.7%; in [15], 73.1%; in experiment [16], 127%; in experiment [17], 66.3%; in experiment [18] it was 115%; in experiment [19] it was 113%. Besides, the % of WT hCD27 binding (geo mean FITC) turned out to be 88% in experiment [20]; 7.8% in experiment [21]; 85.5% in [22]; 121% in experiment [23]; 88.9% in experiment [24]; 92.8% in experiment [25]. For the same molecule, the % of WT hCD27 binding (geo mean FITC) in [26] amounted to 82.8%; in [27], 10%. This molecule also registered an EC50 in experiment [28] of 1.54 nM.

B1: hCD27.15-6B (humanized hCD27.15, human IgG4, Clone 6B) (antibody, V domains shown)
VH: QVQLVQSGAEVKKPGASVKVSCKASGFIIKATYMHWVRQAPGQRLEWMGRIDPANGETKYDPKFQVRVTITADTSASTAYMELSSLRSEDTAVYYCARYAWYFDVWGQGTLVTVSS
VL: DIQMTQSPSSLSASVGDRVTITCRASENIYSFLAWYQQKPGKAPKLLIYHAKTLAEGVTSRFSGSGSGTDFTLTISSLQPEDSATYYCQHYYGSPLTFGQGTRLEIKR
notes: humanized version of hCD27.15 from WO2012/004367 with identical CDR regions; also called hCD27.15 (humanized 6B); hCD27.15 6B humanized antibody
As for B1, the “% of WT hCD27 binding (geo mean FITC)” value stood at 98.6% in experiment [29]; 33.9% in experiment [30]; 69% in [31]; 132% in experiment [32]; 63% in experiment [33].
